Experimental data reported in US7732563B2, “Cloning, sequencing and expression of a gene encoding an eukaryotic amino acid racemase, and diagnostic, therapeutic, and vaccination applications of parasite and viral mitogens” (priority 1999, dated 2010).

Legend:
rTcPA45 proline racemase = biological target: T1, rTcPA45 proline racemase (Trypanosoma cruzi, UniProt Q4DA80); format: biochemical
T1 construct: made in house; host or cells: E. coli (pET28b(+))
Protocol: To investigate the genomic organization and transcription of the Tc45 gene, Southern and Northern blot analyses were done. FIG. 4 depicts the results of characterization of rTcPA45 activities. FIG. 4, part a, is an 8% SDS-PAGE gel of rTcPA45 (Coomasie blue staining). Part b depicts the proliferative activity of total splenocytes (5×10^4 cells/well) in the presence of increasing concentrations of rTcPA45 (μg/ml). […] Reaction conditions were: 0.2 M Na-acetate/25 mM β-mercaptoethanol buffer, pH6, rTcPA45 (3 μg/ml), 30 min incubation at 37° C. in 500 μl. The reaction was stopped by incubating for 10 min at 80° C. […] Reactions were carried out for 30 min at 37° C. and stopped for 5 min at 80° C. All reagents and inhibitors were purchased from Sigma. The shift in optical rotation was measured in a Polarimeter 241 MC (Perkin Elmer).
3 μg of rTcPA45 was diluted in 500 μl of buffer (0.2M NaOAc, […] β-mercaptoethanol, pH6.0) containing different concentrations of the substrate (10-80 mM or L- or D-proline). (See FIG. 4c.) The reaction was incubated for 30-60 minutes at 37° C. in a water bath, followed by heat inactivation of the enzyme for 10 minutes at 80° C. Each sample is diluted to 1.5 ml with water and the mixture submitted to measurement of optical rotation using a polarimeter, at 365 nm. A sample without enzyme is used as a control. For optimal pH determination, buffer systems with NaOAc, phosphate, and Tris were used with pH ranging from 4.0-8.2. Curve of temperature was performed between 27° C. to 47° C.
The percent of racemization of different concentrations of L-proline, D-proline, L-hydroxy-proline and D-hydroxy-proline substrates was calculated by incubating a 500-μl mixture of 3 μg TcPA45 and 10-80 mM substrate in 0.2 M sodium acetate and 25 mM β-mercaptoethanol, pH 6, for 30 min at 37° C. The reaction was stopped by incubation for 10 min at 80° C. Water (1 ml) was then added, and the optical rotation was measured in polarimeter 241 MC (Perkin Elmer, Montignyle Bretonneux, France) at a wavelength of 365 nm, in a cell with a path length of 10 cm. The percent inhibition of racemization of 80 mM L-proline was determined in the presence of different concentrations of several specific and nonspecific inhibitors ranging in concentration from 6 mM to 100 mM. The percent racemization of 80 mM L-proline as a function of pH was determined using 0.2 M sodium acetate, potassium phosphate and Tris-HCl buffers containing 25 mM β-mercaptoethanol; reactions were incubated for 30 min at 37° C. as described above. All reagents and inhibitors were purchased from Sigma.

Trypanosoma cruzi = assay: rTcPA45 sub-mitogenic immunization followed by infective challenge, parasitemia; format: in vivo
Protocol: FIG. 14B. rTcPA45 injection. 6 week old BALB/c mice were injected intraperitoneally (i.p.) with 10 ηg of rTcPA45 and then boosted i.p. one week later with 50 μg of rTcPA45. Mice were challenged 1 week after the boost with 10^4 infective forms of the parasite/mouse, and the parasitemia was scored during 30 days.
As with classical B cell mitogens, rTcPA45 mitogenicity is dose-dependent (FIG. 1). As for classical B cell mitogens, mouse specific immune responses directed to mitogenic rTcPA45 is indeed possible (Western blot FIG. 12) following a protocol of immunization which consisted of with 1 injection (i.p.) of a sub-mitogenic (10 ng/mouse) dose of the protein followed by an additional boost with a mitogenic dose of rTcPA45 (50 μg/mouse) one week later.
These additional results do support the claim that mitogenic moieties are potential targets for vaccination approaches against Trypanosoma cruzi infection. (See FIG. 14(b).)

[1] = pH 6, 3 μg rTcPA45, 30 min at 37° C.

B1: rTcPA45: recombinant T. cruzi polyclonal activator 45, B-cell mitogen and proline racemase, codons 30-423 with C-terminal 6×His tag, from E. coli (protein)
chain: RTGQEKLLFDQKYKIIKGEKKEKKKNQRANRREHQQKREIMRFKKSFTCIDMHTEGEAARIVTSGLPHIPGSNMAEKKAYLQENMDYLRRGIMLEPRGHDDMFGAFLFDPIEEGADLGMVFMDTGGYLNMCGHNSIAAVTAAVETGIVSVPAKATNVPVVLDTPAGLVRGTAHLQSGTESEVSNASIINVPSFLYQQDVVVVLPKPYGEVRVDIAFGGNFFAIVPAEQLGIDISVQNLSRLQEAGELLRTEINRSVKVQHPQLPHINTVDCVEIYGPPTNPEANYKNVVIFGNRQADRSPCGTGTSAKMATLYAKGQLRIGETFVYESILGSLFQGRVLGEERIPGVKVPVTKDAEEGMLVVTAEITGKAFIMGFNTMLFDPTDPFKNGFTLKQ
modifications: left off: small tags and cut ends
rTcPA45 proline racemase; 80 mM L-proline, buffers pH 4.0-8.2
  pH of maximal proline racemase activity: 6
rTcPA45 proline racemase; 10 min heating at 80° C.
  enzyme stability to heating: inactivated
rTcPA45 proline racemase; [1]
  racemisation of L- and D-proline substrates: racemises
  racemisation of L- or D-hydroxy-proline and other natural L-amino acids: not
rTcPA45 proline racemase; tested between 27° C. and 47° C.
  optimal temperature for enzymatic activity: 37 °C
Trypanosoma cruzi; BALB/c mice, 10 ng i.p. then boost 50 μg i.p. one week later, challenge 10^4 parasites/mouse
  parasitemia control: 90-95%
Trypanosoma cruzi; sub-mitogenic doses of active rTcPA45 intraperitoneally 2 weeks before infective challenge
  parasitemia control compared with DNA vaccination (85% decrease): even higher levels of parasitemia control
